± gives the standard deviation of the averaged measurements.
Tests used:
[1] = test system: VchCAST RNA-guided transposition machinery (E. coli BL21(DE3) host, lacZ target); experiment: relative integration efficiency (T-LR orientation) vs wild-type transposon end (log2 (normalized fold change)); transposon end mutated: left end; higher = more efficient transposition
In short: (§1)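 Pools of 1549 left-end or 1849 right-end barcoded transposon variants were cloned into a pUC57 mini-transposon donor and co-transformed into E. coli BL21(DE3) with a T7-driven effector plasmid carrying a CRISPR array, tniQ-cas8-cas7-cas6 and tnsA-tnsB-tnsC. Plating used 0.1 mM IPTG at 37°C for 18 h, and input plasmids and genomic integration junctions were PCR-amplified for Illumina sequencing, with two biological output replicates and four reference barcodes. Relative integration efficiency is the log-transformed fold change of output over input barcode abundance, normalised to the reference barcodes.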

[2] = test system: VchCAST RNA-guided transposition machinery (E. coli BL21(DE3) host, lacZ target); experiment: relative integration efficiency (T-RL orientation) vs wild-type transposon end (log2 (normalized fold change)); transposon end mutated: left end; higher = more efficient transposition
In short: as §1

Sequence: AATGTTGTTGATGCAACCATAAAGTGATATTTAATAATTATTTATAATCAACCATATATTGATATCTCCAGCAACTTAACCACAAAAACAAAACAACCATAAGTTGATATTTTTGTGAATCGAGTATTTCAGCAAAACTACTGCAGTAAGAA
- relative integration efficiency (log2) [1]: -2.65 ± 0.85
- relative integration efficiency (log2) [2]: -3 ± 0.78

Sequence: AATGTTGTTGATGCAACCATAAAGTGATATTTAATAATTATTTATAATCACAACCATATATTGATATCTCACAAAACAACCATAAGTTGATATTTTTGTGAATCGAGTATTTCAGCAAAACTACTGCAGTAAGAAAGTTACTTCGTGGTATG
- relative integration efficiency (log2) [1]: -5.27 ± 1
- relative integration efficiency (log2) [2]: -8.21 ± 0.54

Sequence: AATGTTGTTGATGCAACCATAAAGTGATATTTAATAATTATTTATAATCAGCAACTCAACCATATATTGATATCTCACAAAACAACCATAAGTTGATATTTTTGTGAATCGAGTATTTCAGCAAAACTACTGCAGTAAGAAAGTTACTTCGT
- relative integration efficiency (log2) [1]: -3.27 ± 0.88
- relative integration efficiency (log2) [2]: -3.68 ± 1.1

Sequence: AATGTTGTTGATGCAACCATAAAGTGATATTTAATAATTATTTATAATCAGCAACTGCCAACACCCCACCAACGCGCGGTCGCGAGACACCCCACCAACGCCTGGTCGCGGGGGTGTCCGATCTGATTTCAGCAAAACTACTGCAGTAAGAA
- relative integration efficiency (log2) [1]: -3.03 ± 0.58
- relative integration efficiency (log2) [2]: -6.35 ± 0.99

Sequence: AATGTTGTTGATGCAACCATAAAGTGATATTTAATAATTATTTATAATCAGCAACTTAAAACACCCCACCAACGCGCGGTCGCGAGACACCCCACCAACGCCTGGTCGCGGGGGTGTCCGATCTGATTTCAGCAAAACTACTGCAGTAAGAA
- relative integration efficiency (log2) [1]: -3.63 ± 1.1
- relative integration efficiency (log2) [2]: -5.87 ± 1.1

Sequence: AATGTTGTTGATGCAACCATAAAGTGATATTTAATAATTATTTATAATCAGCAACTTAACAACCATATATTGATATCTCACAAAACAACCATAAGTTGATATTTTTGTGAATCGAGTATTTCAGCAAAACTACTGCAGTAAGAAAGTTACTT
- relative integration efficiency (log2) [1]: -4.07 ± 1.9
- relative integration efficiency (log2) [2]: -3.63 ± 1.3

Sequence: AATGTTGTTGATGCAACCATAAAGTGATATTTAATAATTATTTATAATCAGCAACTTAACAACCATATATTGATATCTCCCACAAAAACAAAACAACCATAAGTTGATATTTTTGTGAATCGAGTATTTCAGCAAAACTACTGCAGTAAGAA
- relative integration efficiency (log2) [1]: -3.54 ± 1.9
- relative integration efficiency (log2) [2]: -1.81 ± 0.81

Sequence: AATGTTGTTGATGCAACCATAAAGTGATATTTAATAATTATTTATAATCAGCAACTTAACACACCCCACCAACGCGCGGTCGCGAGACACCCCACCAACGCCTGGTCGCGGGGGTGTCCGATCTGATTTCAGCAAAACTACTGCAGTAAGAA
- relative integration efficiency (log2) [1]: -3.16 ± 0.77
- relative integration efficiency (log2) [2]: -5.82 ± 1.5

Sequence: AATGTTGTTGATGCAACCATAAAGTGATATTTAATAATTATTTATAATCAGCAACTTAACCAACCCCACCAACGCGCGGTCGCGAGACACCCCACCAACGCCTGGTCGCGGGGGTGTCCGATCTGATTTCAGCAAAACTACTGCAGTAAGAA
- relative integration efficiency (log2) [1]: -4.2 ± 0.92
- relative integration efficiency (log2) [2]: -5.95 ± 1.6

Sequence: AATGTTGTTGATGCAACCATAAAGTGATATTTAATAATTATTTATAATCAGCAACTTAACCACAAAAACCAACGCGCGGTCGCGAGAACAAAAACCAACGCCCTGTCGCGGGCTGTGAATCGAGTATTTCAGCAAAACTACTGCAGTAAGAA
- relative integration efficiency (log2) [1]: -4.56 ± 2.1
- relative integration efficiency (log2) [2]: -6.97 ± 1.6

Sequence: AATGTTGTTGATGCAACCATAAAGTGATATTTAATAATTATTTATAATCAGCAACTTAACCACAAAAACCAACGCGCGGTCGCGAGAACAAAACAACCATAAGTTGATATTTTTGTGAATCGAGTATTTCAGCAAAACTACTGCAGTAAGAA
- relative integration efficiency (log2) [1]: -2.16 ± 0.37
- relative integration efficiency (log2) [2]: -3.6 ± 1.3

Sequence: AATGTTGTTGATGCAACCATAAAGTGATATTTAATAATTATTTATAATCAGCAACTTAACCACAAAAACCAACGCGCGGTCGCGAGACACCCCACCAACGCCTGGTCGCGGGGGTGTCCGATCTGATTTCAGCAAAACTACTGCAGTAAGAA
- relative integration efficiency (log2) [1]: -4.28 ± 1
- relative integration efficiency (log2) [2]: -7.55 ± 2

Sequence: AATGTTGTTGATGCAACCATAAAGTGATATTTAATAATTATTTATAATCAGCAACTTAACCACAAAACAAAACGCGCGGTCGCGAGACACCCCACCAACGCCTGGTCGCGGGGGTGTCCGATCTGATTTCAGCAAAACTACTGCAGTAAGAA
- relative integration efficiency (log2) [1]: -3.29 ± 0.78
- relative integration efficiency (log2) [2]: -6.07 ± 0.85

Sequence: AATGTTGTTGATGCAACCATAAAGTGATATTTAATAATTATTTATAATCAGCAACTTAACCACAAAACAACCAGCGCGGTCGCGAGACACCCCACCAACGCCTGGTCGCGGGGGTGTCCGATCTGATTTCAGCAAAACTACTGCAGTAAGAA
- relative integration efficiency (log2) [1]: -5.07 ± 2.1
- relative integration efficiency (log2) [2]: -7.15 ± 1.6

Sequence: AATGTTGTTGATGCAACCATAAAGTGATATTTAATAATTATTTATAATCAGCAACTTAACCACAAAACAACCATAAAATGATAATTAACAAAAGTTGGTATTCAACTATAAAATGTGAATCGAGTATTTCAGCAAAACTACTGCAGTAAGAA
- relative integration efficiency (log2) [1]: -1.31 ± 1.8
- relative integration efficiency (log2) [2]: -2.67 ± 1.1

Sequence: AATGTTGTTGATGCAACCATAAAGTGATATTTAATAATTATTTATAATCAGCAACTTAACCACAAAACAACCATAAAGTGATATTTAACAAAAGTTGGTATTCAACTATAAAATGTGAATCGAGTATTTCAGCAAAACTACTGCAGTAAGAA
- relative integration efficiency (log2) [1]: -0.811 ± 0.85
- relative integration efficiency (log2) [2]: -2.53 ± 1.4

Sequence: AATGTTGTTGATGCAACCATAAAGTGATATTTAATAATTATTTATAATCAGCAACTTAACCACAAAACAACCATAAGTTGATATTTTACAAAAGTTGGTATTCAACTATAAAATGTGAATCGAGTATTTCAGCAAAACTACTGCAGTAAGAA
- relative integration efficiency (log2) [1]: -0.485 ± 0.68
- relative integration efficiency (log2) [2]: -2.49 ± 1.1

Sequence: AATGTTGTTGATGCAACCATAAAGTGATATTTAATAATTATTTATAATCAGCAACTTAACCACAAAACAACCATAGCGGTCGCGAGACACCCCACCAACGCCTGGTCGCGGGGGTGTCCGATCTGATTTCAGCAAAACTACTGCAGTAAGAA
- relative integration efficiency (log2) [1]: -4.33 ± 1.8
- relative integration efficiency (log2) [2]: -6.21 ± 1.6

Sequence: AATGTTGTTGATGCAACCATAAAGTGATATTTAATAATTATTTATAATCAGCAACTTAACCACAAAACAACCATATAGGTCGCGAGACACCCCACCAACGCCTGGTCGCGGGGGTGTCCGATCTGATTTCAGCAAAACTACTGCAGTAAGAA
- relative integration efficiency (log2) [1]: -3.44 ± 0.57
- relative integration efficiency (log2) [2]: -5.2 ± 1.6

Sequence: AATGTTGTTGATGCAACCATAAAGTGATATTTAATAATTATTTATAATCAGCAACTTAACCACAAAACAACCATATATTGAGCGAGACACCCCACCAACGCCTGGTCGCGGGGGTGTCCGATCTGATTTCAGCAAAACTACTGCAGTAAGAA
- relative integration efficiency (log2) [1]: -2.37 ± 1.7
- relative integration efficiency (log2) [2]: -4.19 ± 1.3

Sequence: AATGTTGTTGATGCAACCATAAAGTGATATTTAATAATTATTTATAATCAGCAACTTAACCACAAAACAACCATATATTGATACAAAACAACCATAAGTTGATATTTTTGTGAATCGAGTATTTCAGCAAAACTACTGCAGTAAGAAAGTTA
- relative integration efficiency (log2) [1]: -2.08 ± 1.7
- relative integration efficiency (log2) [2]: -4.34 ± 0.99

Sequence: AATGTTGTTGATGCAACCATAAAGTGATATTTAATAATTATTTATAATCAGCAACTTAACCACAAAACAACCATATATTGATAGAGACACCCCACCAACGCCTGGTCGCGGGGGTGTCCGATCTGATTTCAGCAAAACTACTGCAGTAAGAA
- relative integration efficiency (log2) [1]: -1.28 ± 2
- relative integration efficiency (log2) [2]: -3.06 ± 1.2

Sequence: AATGTTGTTGATGCAACCATAAAGTGATATTTAATAATTATTTATAATCAGCAACTTAACCACAAAACAACCATATATTGATATACAAAACAACCATAAGTTGATATTTTTGTGAATCGAGTATTTCAGCAAAACTACTGCAGTAAGAAAGT
- relative integration efficiency (log2) [1]: -0.952 ± 0.93
- relative integration efficiency (log2) [2]: -4.08 ± 1.3

Sequence: AATGTTGTTGATGCAACCATAAAGTGATATTTAATAATTATTTATAATCAGCAACTTAACCACAAAACAACCATATATTGATATAGACACCCCACCAACGCCTGGTCGCGGGGGTGTCCGATCTGATTTCAGCAAAACTACTGCAGTAAGAA
- relative integration efficiency (log2) [1]: -1.07 ± 1.7
- relative integration efficiency (log2) [2]: -2.48 ± 1.1

Sequence: AATGTTGTTGATGCAACCATAAAGTGATATTTAATAATTATTTATAATCAGCAACTTAACCACAAAACAACCATATATTGATATCACAAAACAACCATAAGTTGATATTTTTGTGAATCGAGTATTTCAGCAAAACTACTGCAGTAAGAAAG
- relative integration efficiency (log2) [1]: -0.718 ± 0.95
- relative integration efficiency (log2) [2]: -2.64 ± 0.93

Sequence: AATGTTGTTGATGCAACCATAAAGTGATATTTAATAATTATTTATAATCAGCAACTTAACCACAAAACAACCATATATTGATATCGACACCCCACCAACGCCTGGTCGCGGGGGTGTCCGATCTGATTTCAGCAAAACTACTGCAGTAAGAA
- relative integration efficiency (log2) [1]: -1.19 ± 2
- relative integration efficiency (log2) [2]: -2.44 ± 0.91

Sequence: AATGTTGTTGATGCAACCATAAAGTGATATTTAATAATTATTTATAATCAGCAACTTAACCACAAAACAACCATATATTGATATCTACAAAACAACCATAAGTTGATATTTTTGTGAATCGAGTATTTCAGCAAAACTACTGCAGTAAGAAA
- relative integration efficiency (log2) [1]: -0.176 ± 0.54
- relative integration efficiency (log2) [2]: -1.23 ± 0.67

Sequence: AATGTTGTTGATGCAACCATAAAGTGATATTTAATAATTATTTATAATCAGCAACTTAACCACAAAACAACCATATATTGATATCTACACCCCACCAACGCCTGGTCGCGGGGGTGTCCGATCTGATTTCAGCAAAACTACTGCAGTAAGAA
- relative integration efficiency (log2) [1]: -1.16 ± 1.5
- relative integration efficiency (log2) [2]: -2.46 ± 1

Sequence: AATGTTGTTGATGCAACCATAAAGTGATATTTAATAATTATTTATAATCAGCAACTTAACCACAAAACAACCATATATTGATATCTCAACCCCACCAACGCCTGGTCGCGGGGGTGTCCGATCTGATTTCAGCAAAACTACTGCAGTAAGAA
- relative integration efficiency (log2) [1]: -0.776 ± 1.1
- relative integration efficiency (log2) [2]: -2.58 ± 0.89
